Laboratory results reported in publication PMC4989220.
Blank lines part the entries; values can stand above or below the substance they belong to.

Experiments:
[1] = target: Rab6a GTPase (human (endogenous in VA-13, HepG2-derived)) (UniProt P20340); test: proximity ligation; Duolink in situ PLA in control VA-13 cells and hepatocytes from control rats; mouse anti-giantin + rabbit anti-Rab6a, or mouse anti-Rab6a + rabbit anti-NMIIA-P-S1943; cells with more than one red spot counted
[2] = target: Rab6a GTPase (rat hepatocytes) (rat (endogenous in primary hepatocytes)) (UniProt Q9WVB1); test: as above
[3] = target: Rab6a GTPase (rat hepatocytes) (rat (endogenous in primary hepatocytes)) (UniProt Q9WVB1); test: proximity ligation; Duolink in situ PLA in VA-13 cells treated with 35 mM EtOH for 72 h and hepatocytes from EtOH-fed rats; mouse anti-Rab6a + rabbit anti-NMIIA-P-S1943; cells with more than one red spot counted

Rab6a GTPase (rat hepatocytes) (rat (endogenous in primary hepatocytes)), sequence (Q9WVB1 whole entry): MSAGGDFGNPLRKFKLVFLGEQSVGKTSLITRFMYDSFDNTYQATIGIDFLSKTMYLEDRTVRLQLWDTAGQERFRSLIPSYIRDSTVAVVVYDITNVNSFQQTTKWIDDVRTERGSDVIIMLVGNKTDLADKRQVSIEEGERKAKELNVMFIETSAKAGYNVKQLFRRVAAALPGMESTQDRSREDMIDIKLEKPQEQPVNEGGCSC
non-muscle Myosin IIA heavy chain phosphorylated at S1943 (rat hepatocytes), sequence (Q62812 2-1961): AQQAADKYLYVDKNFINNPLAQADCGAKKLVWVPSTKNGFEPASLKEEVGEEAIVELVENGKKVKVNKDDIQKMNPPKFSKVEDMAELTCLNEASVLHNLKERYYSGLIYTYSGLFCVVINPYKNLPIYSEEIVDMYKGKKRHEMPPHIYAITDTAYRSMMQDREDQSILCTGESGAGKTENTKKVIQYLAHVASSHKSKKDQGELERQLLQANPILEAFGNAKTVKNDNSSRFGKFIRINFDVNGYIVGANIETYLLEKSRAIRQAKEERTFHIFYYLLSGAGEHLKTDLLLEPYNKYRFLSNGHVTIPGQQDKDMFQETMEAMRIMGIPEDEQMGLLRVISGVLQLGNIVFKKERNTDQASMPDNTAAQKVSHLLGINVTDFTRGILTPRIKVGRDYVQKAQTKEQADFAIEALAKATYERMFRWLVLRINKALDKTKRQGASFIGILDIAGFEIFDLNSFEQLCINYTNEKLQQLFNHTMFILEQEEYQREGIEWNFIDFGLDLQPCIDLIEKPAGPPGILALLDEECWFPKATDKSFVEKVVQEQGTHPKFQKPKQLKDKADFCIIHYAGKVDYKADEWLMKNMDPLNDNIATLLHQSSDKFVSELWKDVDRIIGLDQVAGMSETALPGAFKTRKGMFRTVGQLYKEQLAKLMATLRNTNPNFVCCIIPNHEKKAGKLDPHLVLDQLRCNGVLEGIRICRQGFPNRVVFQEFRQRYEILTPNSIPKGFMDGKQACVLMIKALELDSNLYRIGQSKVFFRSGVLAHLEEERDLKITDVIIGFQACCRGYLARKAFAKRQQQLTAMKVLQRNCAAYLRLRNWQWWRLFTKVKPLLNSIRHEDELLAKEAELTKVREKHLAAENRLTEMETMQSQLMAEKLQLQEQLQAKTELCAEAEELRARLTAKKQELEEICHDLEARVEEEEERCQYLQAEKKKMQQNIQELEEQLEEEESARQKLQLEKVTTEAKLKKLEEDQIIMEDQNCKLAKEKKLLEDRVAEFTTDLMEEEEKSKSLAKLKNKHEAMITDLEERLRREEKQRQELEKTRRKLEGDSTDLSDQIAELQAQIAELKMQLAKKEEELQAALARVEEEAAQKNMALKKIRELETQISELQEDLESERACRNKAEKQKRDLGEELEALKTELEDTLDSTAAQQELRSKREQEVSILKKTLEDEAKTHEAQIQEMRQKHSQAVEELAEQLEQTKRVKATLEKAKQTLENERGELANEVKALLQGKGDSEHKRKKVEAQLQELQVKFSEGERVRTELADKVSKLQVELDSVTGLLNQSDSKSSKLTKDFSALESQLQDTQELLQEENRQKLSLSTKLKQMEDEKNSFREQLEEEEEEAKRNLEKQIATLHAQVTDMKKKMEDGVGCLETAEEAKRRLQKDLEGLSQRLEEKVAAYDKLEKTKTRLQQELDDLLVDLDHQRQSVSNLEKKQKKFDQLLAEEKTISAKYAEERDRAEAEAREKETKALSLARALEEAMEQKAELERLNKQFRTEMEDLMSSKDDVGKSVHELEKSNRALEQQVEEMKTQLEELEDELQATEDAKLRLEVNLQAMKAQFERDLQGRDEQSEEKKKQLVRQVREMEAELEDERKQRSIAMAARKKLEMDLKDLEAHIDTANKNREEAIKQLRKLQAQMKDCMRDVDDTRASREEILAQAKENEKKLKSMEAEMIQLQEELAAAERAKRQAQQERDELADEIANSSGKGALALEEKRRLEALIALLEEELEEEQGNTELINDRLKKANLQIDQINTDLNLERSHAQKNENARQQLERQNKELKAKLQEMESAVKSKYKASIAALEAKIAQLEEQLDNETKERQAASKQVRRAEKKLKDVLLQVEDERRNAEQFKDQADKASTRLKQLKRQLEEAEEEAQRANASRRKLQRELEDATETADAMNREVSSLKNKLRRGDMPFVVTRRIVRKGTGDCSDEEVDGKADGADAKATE
Rab6a GTPase (human (endogenous in VA-13, HepG2-derived)), sequence (P20340 whole entry): as the sequence (Q9WVB1 whole entry) above, with A3T, N202S counted along it

percent of cells with more than one PLA spot [1]: 78%
Substance: giantin, Q14789 1-3259

percent of cells with more than one PLA spot [2]: 83%
Substance: giantin (rat hepatocytes) (natural protein)

Substance: non-muscle Myosin IIA heavy chain phosphorylated at S1943 (rat hepatocytes) (from UniProt Q62812 1-1961) (natural protein)
percent of cells with PLA-positive puncta [3]: 86%
